{"source": "patent US20210238229A1", "about": "“PEPTIDE FOR DISEASE TREATMENT” (UNIVERSITY COLLEGE CORK - NATIONAL UNIVERSITY OF IRELAND, …, priority 2018, published 2021)", "key": {"[1]": {"tested_on": "HUVEC", "test": "cAMP in primary human umbilical vein endothelial cells", "format": "cell-based", "details": "15 min stimulation", "procedure": "Primary human umbilical vein endothelial cells (HUVEC) were purchased from PromoCell (Heidelberg, Germany). HUVEC were cultured in 100 mm cell culture dishes and were seeded at 75,000 per well in 24-well plates at passage 5-7, for stimulation. Stimulation with Ang-(1-6) or C21 and the blockers was carried out as described above.\ncAMP concentration in cell lysates was determined using Direct cAMP ELISA kit (Enzo Life Sciences Ltd., Exeter, United Kingdom). Briefly, wells of 96-well plate (Goat Anti-Rabbit IgG pre-coated) were neutralized with 50 μl of Neutralizing Reagent. Next, 100 μl of acetylated cAMP standard or cell lysate was added, followed by 50 μl of blue cAMP-Alkaline Phosphatase Conjugate and 50 μl of yellow EIA Rabbit Anti-cAMP antibody. The plate was then incubated on a shaker (˜400 rpm) at room temperature for 2 h. Next, the wells were aspirated and rinsed three times with Wash Buffer (1:10, Tris buffered saline containing detergents and sodium azide in deionized water). After the final wash, the plate was tapped against clean paper towel to remove any remaining Wash Buffer. […] The enzymatic reaction was stopped by adding 50 μl of Stop Solution, and the absorbance at 405 nm was measured immediately. The cAMP concentration was determined from non-linear standard curve using GraphPad Prism 6.0 software. […]"}, "[2]": {"biological_target": "T1, AT2 receptor (Homo sapiens, UniProt P50052)", "T1 construct": "expressed in transfected cells; host or cells: HEK-293, transient transfection with PolyFect", "T1 sequence (P50052 1-363)": "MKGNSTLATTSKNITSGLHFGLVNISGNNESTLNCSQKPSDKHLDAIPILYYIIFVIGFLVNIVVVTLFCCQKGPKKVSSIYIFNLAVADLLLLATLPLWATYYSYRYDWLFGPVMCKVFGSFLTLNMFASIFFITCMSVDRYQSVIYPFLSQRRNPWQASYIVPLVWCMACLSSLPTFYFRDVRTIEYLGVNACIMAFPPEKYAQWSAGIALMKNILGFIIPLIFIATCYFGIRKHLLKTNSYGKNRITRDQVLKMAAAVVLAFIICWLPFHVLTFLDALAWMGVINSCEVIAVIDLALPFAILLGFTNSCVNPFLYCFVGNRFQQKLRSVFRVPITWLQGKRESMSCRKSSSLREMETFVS", "test": "cAMP in AT2-transfected HEK293 cells", "format": "cell-based", "details": "for intracellular cAMP production: AT2-transfected HEK293, 15 min stimulation", "procedure": "Human embryonic kidney (HEK-293) cells were cultured in DMEM medium supplemented with FBS (10%), HEPES buffer (1%), sodium pyruvate (1%), and L-glutamine (1%) and maintained under standard conditions (5% CO2, 95% humidity and 37° C.). Cells were cultured in 100 mm cell culture dishes and seeded in 48-well plates at a density of 75,000 cells per well. The next day, HEK-293 cells were transfected using a transient transfection procedure following the manufacturer's instructions. Briefly, 150 ng of control plasmid pcDNA3.1 or a combination of 50 ng of pcDNA3.1 and 100 ng of expression vectors containing the cDNA for Mas, MrgD, AT1 or AT2, were mixed with serum-free medium and PolyFect transfection reagent. After 10 min incubation at room temperature, which allowed the complex formation, complete medium was added and the total volume was transferred into appropriate wells of the 48-well plate. The cells were incubated for 16-20 hrs. The next day, the medium was replaced by serum-free medium 1 hr before stimulation. After stimulation with A779, D-Pro, PD123319, forskolin (all 10^−6 M), or PTX (50 ng/ml), or SQ22536 (2×10^−6M) for 15 min, the solvent, Ang-(1-6) or C21 (all in the mentioned concentrations) were added for 15 min. Then, the cells were lysed by adding 180 μl/well of 0.1M hydrochloric acid with 0.1% Triton X-100, and the lysates were stored at −80° C. until cAMP measurement. The protein concentration was determined using Pierce BCA Protein Assay Kit according to the manufacturer's protocol (Thermo Fisher Scientific, Waltham, Mass., USA).\ncAMP concentration in cell lysates was determined using Direct cAMP ELISA kit (Enzo Life Sciences Ltd., Exeter, United Kingdom). Briefly, wells of 96-well plate (Goat Anti-Rabbit IgG pre-coated) were neutralized with 50 μl of Neutralizing Reagent. Next, 100 μl of acetylated cAMP standard or cell lysate was added, followed by 50 μl of blue cAMP-Alkaline Phosphatase Conjugate and 50 μl of yellow EIA Rabbit Anti-cAMP antibody. The plate was then incubated on a shaker (˜400 rpm) at room temperature for 2 h. Next, the wells were aspirated and rinsed three times with Wash Buffer (1:10, Tris buffered saline containing detergents and sodium azide in deionized water). After the final wash, the plate was tapped against clean paper towel to remove any remaining Wash Buffer. To each well, 200 μl p-Nitrophenyl Phosphate Substrate Solution was added, and the plate was incubated for 1 h at room temperature. The enzymatic reaction was stopped by adding 50 μl of Stop Solution, and the absorbance at 405 nm was measured immediately. The cAMP concentration was determined from non-linear standard curve using GraphPad Prism 6.0 software.\nThe results are illustrated by FIG. 1A.\npcDNA-transfected HEK293 cells and AT2-transfected HEK293 cells were stimulated for 15 min with a range of concentrations (10^−16 to 10^−6 M) of Ang-(1-6). The results are illustrated by FIGS. 1B and 1C.\nAT2-transfected HEK293 cells were stimulated for 15 min with a range of concentrations (10^−13 to 10^−6 M) of C21, Ang (1-4) and Ang (1-7) PBS and the concentration of cAMP was measured in accordance with the methodology provided. The results are illustrated by FIGS. 6 and 7.\nAT2-transfected HEK293 cells were stimulated for 15 min with C21, Ang-(1-6) and a range of concentrations (10^−14 to 10^−7 M) of Ala^1-Ser^4-Ang-(1-6), and the concentration of cAMP was measured in accordance with the methodology provided.\nAT2-transfected HEK293 cells were stimulated for 15 min with Ang-(1-6) and a range of concentrations (10^−15 to 10^−7 M) of Ser^4-Ang-(1-6) and the concentration of cAMP was measured in accordance with the methodology provided."}, "[3]": {"biological_target": "T1, AT2 receptor", "test": "Block of Ang-(1-6) mediated cAMP signal in AT2-transfected HEK293 cells", "format": "cell-based", "details": "Ang-(1-6) 10^−10 M, increasing antagonist concentrations", "procedure": "Human embryonic kidney (HEK-293) cells were cultured in DMEM medium supplemented with FBS (10%), HEPES buffer (1%), sodium pyruvate (1%), and L-glutamine (1%) and maintained under standard conditions (5% CO2, 95% humidity and 37° C.). Cells were cultured in 100 mm cell culture dishes and seeded in 48-well plates at a density of 75,000 cells per well. The next day, HEK-293 cells were transfected using a transient transfection procedure following the manufacturer's instructions. […] The protein concentration was determined using Pierce BCA Protein Assay Kit according to the manufacturer's protocol (Thermo Fisher Scientific, Waltham, Mass., USA).\ncAMP concentration in cell lysates was determined using Direct cAMP ELISA kit (Enzo Life Sciences Ltd., Exeter, United Kingdom). […] The enzymatic reaction was stopped by adding 50 μl of Stop Solution, and the absorbance at 405 nm was measured immediately. The cAMP concentration was determined from non-linear standard curve using GraphPad Prism 6.0 software.\nCells were stimulated for 15 min with (a) 10^−11 M and 10^−1° M Ang-(1-6), (b) Ala^1-Ang-(1-6) (10^−10 M) or (c) a range of concentrations (10^−12M to 10^−8M) of Ala^1-Ang (1-6) together with Ang-(1-6) at a concentration of 10^−10M. The concentration of cAMP was measured in accordance with the methodology provided."}, "[4]": {"test": "Peptide degradation in mouse kidney membranes", "format": "in vitro ADME", "details": "after 15 minutes, compared to Ang-(1-7) and Ang II", "procedure": "Peptides (10^−4M) were incubated with 45 μg of murine kidney membrane preparations and diluted with 50 mM Tris-HCl buffer pH 7.4 laced with 0.1% BSA to minimise adhesion of the peptide onto the tube walls. Incubations proceeded for the desired time, after which the reaction was stopped by addition of half volume of 350 mM HClO4. Samples were then centrifuged to remove any particulates prior to LCMS analysis.\nAng-(1-6) degradation in mouse kidney membranes over 30 minutes compared to Ang-(1-7) and Ang II. (FIG. 4A)"}, "[5]": {"tested_on": "Human kidney cancer A498 cells", "test": "Colony formation assay", "format": "cell-based", "details": "daily treatment for 5 days", "procedure": "Human kidney cancer A498 cells were seeded at 300 cells/well in a 6-well plate. The next day, cells were treated with various peptides daily. Each condition was run in triplicate. After 5 days of treatment, cells were washed once with PBS after media removal, stained with 0.5% crystal violet in 30% ethanol and 3% formaldehyde for 10 min at RT and washed with distilled water. Colonies were counted under the microscope.\nHuman renal cancer cells were treated with Ang-(1-6) or analogues and the effect on colony formation counted. Such cells are used for in vivo experiments in rodents when implanted subcutaneously or into the kidney to generate a rapidly forming and growing tumour, being leathal if untreated."}}, "note": "Where no end group is shown, it is not given here."}
{"molecule": "CCCCOC(=O)NS(=O)(=O)c1sc(CC(C)C)cc1-c1ccc(Cn2ccnc2)cc1", "note": "[C21]", "values": [{"measurement": "cAMP stimulation in primary endothelial cells (HUVEC)", "setting": "[1]", "result": "can stimulate such cells"}]}
{"molecule": "ARVSIH [Ala^1-Ser^4-Ang-(1-6), variant of Ang-(1-6) with Ala at position 1 and Ser at position 4]", "values": [{"measurement": "concentration at Emax (cAMP)", "setting": "[2]; AT2-transfected HEK293", "result": "10^−11 M"}, {"measurement": "intracellular cAMP production", "setting": "[2]", "result": "increases intracellular cAMP production"}, {"measurement": "increase in intracellular cAMP production compared with Ang (1-6)", "setting": "[2]; same concentration (10^−11M)", "result": "greater increase"}]}
{"molecule": "ARVYIH [Ala^1-Ang-(1-6), variant of Ang-(1-6) with Ala at position 1, AT2 antagonist]", "values": [{"measurement": "intracellular cAMP production", "setting": "[2]", "result": "no effect"}, {"measurement": "block of cAMP-generating capacity of Ang-(1-6)", "setting": "[3]", "result": "completely blocked"}]}
{"molecule": "DRVSIH [Ser^4-Ang-(1-6), variant of Ang-(1-6) with Ser at position 4]", "values": [{"measurement": "AT2 stimulation relative to Ang (1-6)", "setting": "[2]; AT2-transfected HEK293, 10^−15 to 10^−7 M", "result": "comparable to Ang (1-6)"}, {"measurement": "intracellular cAMP production", "setting": "[2]", "result": "increases intracellular cAMP production"}]}
{"molecule": "DRVY (Angiotensin-2; UniProt P01019 25-28, looked up, fragment) [Ang (1-4), angiotensin fragment 1-4, reference compound]", "values": [{"measurement": "intracellular cAMP production", "setting": "[2]", "result": "do not increase intracellular cAMP"}]}
{"molecule": "DRVYIH [Ang (1-6), DRVYIH]", "values": [{"measurement": "peptide degradation", "setting": "[4]", "result": "rapid"}]}
{"molecule": "DRVYIHP [Ang (1-7), reference compound]", "values": [{"measurement": "intracellular cAMP production", "setting": "[2]", "result": "do not increase intracellular cAMP"}]}
{"molecule": "RVSIH [Ser^4-Ang (2-6), fragment peptide 2-6 with Ser substitution]", "values": [{"measurement": "number of colonies versus solvent (PBS)", "setting": "[5]", "result": "significant reduction of colonies"}]}
{"molecule": "RVYIH [Ang (2-6), truncated version of Ang (1-6)]", "values": [{"measurement": "number of colonies versus solvent (PBS)", "setting": "[5]", "result": "significant reduction of colonies"}]}
